Measured values taken from doi:10.1101/343368.

Tests used:
Experiment in all cases: GO/AuNP colorimetric aptasensor
tropomyosin (Pen a 1) = tropomyosin (Pen a 1) (shrimp (species ), UniProt Q3Y8M6 1-284)
beta-lactoglobulin = biological target: T1, beta-lactoglobulin (milk (species ), UniProt P02754 17-178)
T1 sequence: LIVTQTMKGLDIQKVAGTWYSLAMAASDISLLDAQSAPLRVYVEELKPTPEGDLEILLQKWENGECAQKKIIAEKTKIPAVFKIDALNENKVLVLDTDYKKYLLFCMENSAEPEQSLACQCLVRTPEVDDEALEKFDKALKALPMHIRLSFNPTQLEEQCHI

arachin (Ara h 1) = biological target: T2, arachin (Ara h 1) (peanut, UniProt P43238 85-626)
T2 sequence: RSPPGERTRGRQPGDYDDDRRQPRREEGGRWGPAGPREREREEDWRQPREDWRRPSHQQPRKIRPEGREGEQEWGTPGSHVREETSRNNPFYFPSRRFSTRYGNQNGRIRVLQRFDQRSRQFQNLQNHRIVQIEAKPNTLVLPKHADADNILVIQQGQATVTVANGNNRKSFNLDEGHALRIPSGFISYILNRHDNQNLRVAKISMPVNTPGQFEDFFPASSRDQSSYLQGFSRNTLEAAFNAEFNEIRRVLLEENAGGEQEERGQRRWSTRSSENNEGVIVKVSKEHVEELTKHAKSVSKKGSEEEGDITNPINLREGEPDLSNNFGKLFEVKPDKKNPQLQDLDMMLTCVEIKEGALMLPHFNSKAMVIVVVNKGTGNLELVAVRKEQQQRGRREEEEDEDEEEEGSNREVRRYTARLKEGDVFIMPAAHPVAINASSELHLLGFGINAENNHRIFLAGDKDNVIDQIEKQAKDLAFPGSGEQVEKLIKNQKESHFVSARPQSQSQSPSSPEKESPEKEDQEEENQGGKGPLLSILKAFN

Chain of tropomyosin (Pen a 1) (Q3Y8M6 whole entry): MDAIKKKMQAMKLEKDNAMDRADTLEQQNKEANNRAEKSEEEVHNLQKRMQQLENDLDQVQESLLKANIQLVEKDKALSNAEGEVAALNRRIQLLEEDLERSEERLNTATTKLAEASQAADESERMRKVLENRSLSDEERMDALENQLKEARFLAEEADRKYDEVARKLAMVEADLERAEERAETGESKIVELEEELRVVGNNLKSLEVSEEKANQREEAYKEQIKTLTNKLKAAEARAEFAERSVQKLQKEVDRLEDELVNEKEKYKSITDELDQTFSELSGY

B1: tropomyosin (shrimp) aptamer (ssDNA)
DNA: TACTAACGGTACAAGCTACCAGGCCGCCAACGTTGACCTAGAAGCACTGCCAGACCCGAACGTTGACCTAGAAGC
modifications: biotin (position not given)
binding result (tropomyosin (Pen a 1)): binds

B2: beta-lactoglobulin (milk) aptamer (ssDNA)
DNA: ATACCAGCTTATTCAATTCGACGATCGGACCGCAGTACCCACCCACCAGCCCCAACATCATGCCCATCCGTGTGTGAGATAGTAAGTGCAATCT
modifications: biotin (position not given)
binding result (beta-lactoglobulin): binds

B3: arachin (peanut) aptamer (ssDNA)
DNA: TCGCACATTCCGCTTCTACCGGGGGGGTCGAGCGAGTGAGCGAATCTGTGGGTGGGCCGTAAGTCCGTGTGTGCGAA
modifications: biotin (position not given)
binding result (arachin (Ara h 1)): binds
